Where two headings read alike, the source gives them in different places.
How the values were obtained:
[1] = target: F-actin prepared from rabbit skeletal muscle (rabbit) (UniProt P68135); assay: co-sedimentation
[2] = target: rhodamine-phalloidin-labeled, 10% biotinylated filamentous actin (UniProt P68135); assay: optical trapping
[3] = target: F-actin prepared from rabbit skeletal muscle (rabbit) (UniProt P68135); assay: co-sedimentation; remark: listed apart in the source

Substance	Kd [1]	koff [2]	Kd [3]	fraction bound in the first sedimentation at 20 μM actin [3]
Drosophila myosin-18 M-PDZ (minimal motor domain construct with the N-terminal PDZ domain) (domain or fragment)	1.5 µM	94.2 s⁻¹	2.6 µM	54.9%
Drosophila myosin-18 M-ΔPDZ (minimal motor domain construct without the PDZ domain) (domain or fragment)	1 µM	57 s⁻¹	1 µM	

Reference: PMC3122231
